Laboratory results as given in the supplement of paper PMC9876800.

Tested on: peptide library, one residue held at a place counted from the S/T acceptor
Experiment: relative phosphorylation of the sub-library (ratio to the mean residue at this position); human; higher = residue favoured
Method in brief: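 Human or orthologue kinase constructs, purified and recombinant, were incubated under kinase-specific conditions in 384-well plates with biotinylated degenerate peptide sub-libraries. Each sub-library fixed one residue at one position around a central Ser/Thr. Incubations lasted 90 min with peptides at 50 μM and 50 μM ATP spiked with γ-32P-ATP, after which spots on streptavidin membranes were phosphorimaged and quantified by densitometry. Relative sub-library phosphorylation is a ratio to the mean residue at that position.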

RIPK1, construct: aa1-327, sequence (Q13546 1-327, looked up): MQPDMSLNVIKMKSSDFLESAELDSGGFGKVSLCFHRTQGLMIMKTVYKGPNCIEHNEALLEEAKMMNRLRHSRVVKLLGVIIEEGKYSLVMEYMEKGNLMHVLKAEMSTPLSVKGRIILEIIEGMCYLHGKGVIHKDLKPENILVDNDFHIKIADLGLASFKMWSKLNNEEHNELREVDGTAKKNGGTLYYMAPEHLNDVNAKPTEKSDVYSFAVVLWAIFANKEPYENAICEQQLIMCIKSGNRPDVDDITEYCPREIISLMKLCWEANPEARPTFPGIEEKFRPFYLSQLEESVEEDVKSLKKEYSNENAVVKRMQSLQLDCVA
IKBKE, construct: Full length, sequence (Q14164 whole entry, looked up): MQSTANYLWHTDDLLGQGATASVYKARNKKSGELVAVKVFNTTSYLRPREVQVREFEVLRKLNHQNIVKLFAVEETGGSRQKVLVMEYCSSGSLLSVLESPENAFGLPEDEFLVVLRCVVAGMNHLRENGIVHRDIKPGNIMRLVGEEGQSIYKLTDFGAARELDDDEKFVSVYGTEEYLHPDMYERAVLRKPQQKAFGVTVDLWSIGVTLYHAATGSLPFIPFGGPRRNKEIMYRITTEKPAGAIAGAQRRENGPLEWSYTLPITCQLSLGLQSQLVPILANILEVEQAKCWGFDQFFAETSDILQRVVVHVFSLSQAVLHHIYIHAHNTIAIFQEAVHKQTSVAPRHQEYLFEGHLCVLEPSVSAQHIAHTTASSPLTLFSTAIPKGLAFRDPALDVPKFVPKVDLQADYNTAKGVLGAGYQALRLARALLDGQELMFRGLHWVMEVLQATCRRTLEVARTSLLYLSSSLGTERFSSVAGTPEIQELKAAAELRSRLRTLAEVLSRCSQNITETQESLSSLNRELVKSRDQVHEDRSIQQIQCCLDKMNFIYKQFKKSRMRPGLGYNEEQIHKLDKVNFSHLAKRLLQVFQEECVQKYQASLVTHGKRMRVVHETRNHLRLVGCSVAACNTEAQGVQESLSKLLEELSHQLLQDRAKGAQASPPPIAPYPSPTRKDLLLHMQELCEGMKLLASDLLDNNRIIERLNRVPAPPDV

IKBKE, construct: Full length (from UniProt Q14164)
relative phosphorylation
Conditions | at +1 | at +2 | at +3 | at +4 | at -1 | at -2 | at -3 | at -4 | at -5
A fixed | 0.346 | 1.18 | 0.935 | 0.899 | 0.911 | 0.889 | 1.11 | 1.12 | 1.26
D fixed | 0.306 | 1.07 | 0.898 | 0.987 | 1.04 | 1.25 | 1.24 | 1.35 | 1.34
E fixed | 0.22 | 0.933 | 0.928 | 1.01 | 0.97 | 0.821 | 1.2 | 1.23 | 1.27
F fixed | 1.6 | 0.967 | 1.22 | 1.12 | 1.03 | 1.65 | 0.755 | 0.829 | 0.992
G fixed | 0.423 | 0.811 | 0.961 | 0.879 | 0.677 | 0.857 | 1.42 | 1.44 | 1.21
H fixed | 0.688 | 1.14 | 1.24 | 1.15 | 1.11 | 0.99 | 1.09 | 1.08 | 1.14
I fixed | 2.51 | 1.06 | 0.853 | 0.964 | 0.899 | 0.528 | 0.632 | 0.796 | 0.742
K fixed | 0.219 | 0.714 | 0.471 | 0.672 | 0.849 | 0.563 | 0.819 | 0.88 | 0.927
L fixed | 3.41 | 1.08 | 0.887 | 0.994 | 1.18 | 1.11 | 0.743 | 0.94 | 0.753
M fixed | 3.08 | 1.18 | 1.11 | 1.03 | 1.28 | 1.65 | 1.07 | 0.928 | 0.808
N fixed | 0.323 | 1.04 | 0.9 | 0.854 | 0.916 | 0.916 | 1.12 | 1.01 | 1.06
P fixed | 0.178 | 0.893 | 1.14 | 1.1 | 1.12 | 1.13 | 1.3 | 1.06 | 0.959
Q fixed | 0.292 | 1.07 | 0.835 | 0.839 | 0.89 | 0.796 | 1.05 | 0.942 | 0.827
R fixed | 0.248 | 0.931 | 0.626 | 0.721 | 0.955 | 0.62 | 0.968 | 0.845 | 0.965
V fixed | 1.04 | 1.22 | 0.936 | 0.926 | 0.986 | 0.544 | 0.672 | 0.665 | 0.861
W fixed | 1 | 0.876 | 1.33 | 1.65 | 0.94 | 0.934 | 0.826 | 0.955 | 0.922
Y fixed | 1.12 | 0.831 | 1.74 | 1.21 | 1.24 | 1.76 | 0.995 | 0.918 | 0.974
pThr fixed | 0.471 | 1.03 | 0.717 | 1.04 | 0.722 | 0.757 | 1.13 | 1.18 | 1
pTyr fixed | 0.448 | 0.8 | 1.07 | 0.934 | 1.18 | 1.29 | 1.67 | 1.13 | 1.03

RIPK1, construct: aa1-327 (from UniProt Q13546)
relative phosphorylation
Conditions | at +1 | at +2 | at +3 | at +4 | at -1 | at -2 | at -3 | at -4 | at -5
A fixed | 0.709 | 0.619 | 0.572 | 0.819 | 0.574 | 1.01 | 0.92 | 1.03 | 0.84
D fixed | 0.248 | 0.612 | 0.489 | 0.846 | 0.592 | 0.374 | 0.536 | 0.614 | 0.642
E fixed | 0.331 | 0.927 | 0.398 | 0.81 | 0.313 | 0.37 | 0.551 | 0.685 | 0.68
F fixed | 1.91 | 1.28 | 2 | 0.939 | 0.793 | 0.734 | 0.896 | 1.04 | 1.09
G fixed | 0.79 | 0.817 | 0.707 | 1.28 | 0.747 | 1.21 | 1.29 | 1.27 | 1.18
H fixed | 0.809 | 1.29 | 1.04 | 1.07 | 1.52 | 1.18 | 0.977 | 0.908 | 1.12
I fixed | 1.1 | 1.28 | 1.19 | 1.27 | 1.12 | 1.07 | 0.944 | 1.04 | 1.28
K fixed | 1.33 | 0.639 | 0.517 | 0.762 | 1.83 | 1.3 | 1.27 | 1.06 | 1.1
L fixed | 0.829 | 1.21 | 1.09 | 0.947 | 1.01 | 1.19 | 0.986 | 0.935 | 1.14
M fixed | 1.38 | 1.34 | 1.34 | 1.11 | 1.18 | 1.04 | 1.08 | 1.13 | 1.2
N fixed | 0.583 | 0.801 | 0.726 | 0.839 | 1.3 | 0.975 | 0.829 | 0.76 | 0.797
P fixed | 0.198 | 0.568 | 0.355 | 1.14 | 0.453 | 1.11 | 0.927 | 1.02 | 0.833
Q fixed | 1.19 | 0.891 | 0.703 | 0.787 | 0.85 | 0.796 | 0.743 | 0.689 | 0.667
R fixed | 2.48 | 1.02 | 1.13 | 0.945 | 1.97 | 1.94 | 2.35 | 1.4 | 1.32
V fixed | 0.96 | 1.03 | 0.917 | 1.04 | 1.03 | 1.26 | 0.845 | 1.22 | 1.16
W fixed | 1.01 | 1.03 | 1.88 | 1.22 | 0.675 | 0.763 | 1.02 | 1.29 | 0.987
Y fixed | 1.15 | 1.66 | 1.94 | 1.18 | 1.04 | 0.682 | 0.84 | 0.912 | 0.972
pThr fixed | 0.704 | 0.999 | 0.696 | 1.06 | 0.761 | 1.34 | 1.15 | 1.08 | 0.87
pTyr fixed | 0.391 | 0.788 | 0.54 | 0.968 | 0.683 | 0.719 | 1.19 | 0.795 | 0.72
